Assay results published in patent US20230374475A1.

Tests used:
[1] = molecular target: engineered T. gorgonarius reverse-transcriptase lacking proof reading activity (3'-5' exonuclease) (TgoRTxo) (Thermococcus gorgonarius (engineered)) (UniProt P56689); experiment: cell-based or functional assay
[2] = molecular target: T1, TgoRTxo (exonuclease-deficient engineered Tgo reverse transcriptase) (Thermococcus gorgonarius) (UniProt P56689); settings: RT efficiency without KPCNA; Mg, dNTPs; about 45% with 1 uM KPCNA
T1 sequence: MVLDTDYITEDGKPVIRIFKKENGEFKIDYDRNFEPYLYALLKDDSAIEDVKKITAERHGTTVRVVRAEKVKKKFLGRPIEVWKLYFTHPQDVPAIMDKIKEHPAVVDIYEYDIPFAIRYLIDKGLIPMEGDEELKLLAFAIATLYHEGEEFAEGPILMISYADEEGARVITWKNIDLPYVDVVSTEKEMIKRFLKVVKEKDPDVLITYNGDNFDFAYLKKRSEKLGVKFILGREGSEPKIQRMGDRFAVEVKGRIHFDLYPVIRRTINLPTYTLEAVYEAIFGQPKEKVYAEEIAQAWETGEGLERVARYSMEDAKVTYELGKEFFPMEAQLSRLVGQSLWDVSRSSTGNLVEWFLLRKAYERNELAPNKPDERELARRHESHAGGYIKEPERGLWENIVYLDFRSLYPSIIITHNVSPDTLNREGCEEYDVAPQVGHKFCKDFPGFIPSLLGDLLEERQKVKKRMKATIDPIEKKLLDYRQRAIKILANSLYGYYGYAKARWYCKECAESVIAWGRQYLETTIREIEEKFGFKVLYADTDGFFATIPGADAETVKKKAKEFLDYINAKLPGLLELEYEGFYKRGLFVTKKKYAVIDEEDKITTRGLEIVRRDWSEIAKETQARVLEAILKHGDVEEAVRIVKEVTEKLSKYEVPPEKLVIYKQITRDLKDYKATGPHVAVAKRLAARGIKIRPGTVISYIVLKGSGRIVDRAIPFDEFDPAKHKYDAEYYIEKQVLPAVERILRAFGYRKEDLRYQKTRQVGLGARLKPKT

RT efficiency of TgoRTxo at 3.5 uM KPCNA compared to no KPCNA [1] [fold] | efficiency of reverse transcription (fold increase, KPCNA raised from 0 to 1 uM) [1] [fold] | reverse transcriptase efficiency of TgoRTxo in the absence of KPCNA (baseline) [1] [%] | reverse transcriptase efficiency of TgoRTxo with 1 uM KPCNA [1] [%] | Substance | activity [2] [%]
3 | 4 | 10 | 45 | T. kodakarensis proliferating cell nuclear antigen (KPCNA) (from UniProt Q5JF32 2-249) | 
 |  |  |  | ~600 nt RNA template with DNA primer | 10
